Like-named read-outs stand apart in the source and are kept apart here.
How the values were obtained:
[1] = target: membrane-bound immunoglobulin heavy mu chain (B-cell receptor, IgM) on Ramos lymphoma cells (Homo sapiens) (UniProt P01871); conditions: confocal staining of Ramos xenograft brain slices, 1.0 uM, 10 min on ice, 6 mM MgCl2, 1.2 mM CaCl2, PBS, yeast tRNA; U251 glioma 0.81% and normal brain 0.80% …
[2] = target: membrane-bound immunoglobulin heavy mu chain (B-cell receptor, IgM) on Ramos lymphoma cells (Homo sapiens) (UniProt P01871); conditions: confocal staining of Ramos xenograft brain slices, 1.0 uM, 10 min; target not purified

UniProt P01871, sequence (P01871 1-450): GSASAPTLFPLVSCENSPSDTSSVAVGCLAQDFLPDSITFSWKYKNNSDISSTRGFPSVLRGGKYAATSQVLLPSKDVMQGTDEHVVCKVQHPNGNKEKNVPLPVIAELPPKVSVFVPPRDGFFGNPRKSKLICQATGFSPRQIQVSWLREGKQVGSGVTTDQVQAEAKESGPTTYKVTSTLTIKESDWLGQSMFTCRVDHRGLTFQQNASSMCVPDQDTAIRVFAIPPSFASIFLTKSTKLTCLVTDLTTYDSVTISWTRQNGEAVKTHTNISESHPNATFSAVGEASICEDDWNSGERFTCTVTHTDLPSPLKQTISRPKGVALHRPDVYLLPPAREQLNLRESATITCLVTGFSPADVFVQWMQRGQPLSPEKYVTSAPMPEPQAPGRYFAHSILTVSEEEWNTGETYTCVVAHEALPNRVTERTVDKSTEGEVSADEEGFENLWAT

Substance	binding (% cells labeled) [1]	binding (% cells labeled) [2]
AGGAGGATAGTTCGGTGGCTGTTCAGGGTCTCCTCCT [TD05-488]	76.7	
nonspecific Alexa Fluor 488 aptamer		2.71

Source: patent US20230038866
